Results: patent publication US20130344125A1, “DRUG DELIVERY DEVICE” (priority 2010, published 2013)
Where no end group is shown, it is not given here.

Assay: Particle size and size distribution of nano-lipobubbles by dynamic light scattering (Zetasizer NanoZS)
Format: physicochemical
Conditions: 25° C., deionized water, extruded through 0.22 μm filter
Protocol: Particle size and size distribution of synthetic peptide ligands, non-targeted nano-lipobubbles and targeted nano-lipobubbles were analyzed by a Zetasizer NanoZS instrument (Malvern Instruments (Pty) Ltd., Worcestershire, UK) at 25° C. Samples were suspended in deionized water, and then extruded through a 0.22 μm pore size polycarbonate membrane filter prior to analysis. Each analysis was performed in triplicate.
The physicochemical properties of the targeted nano-lipobubbles in terms of size distribution and zeta-potential were examined using the standard method of dynamic light scattering measurement (Zetasizer NanoZS, Malvern Instrument). […] The diameter of synthetic peptide ligand (KVLFLS 9 SEQ ID NO: 2)) alone was in the range of 366±41 nm. When 1 mol % of the linear synthetic peptide ligand incorporated or coupled with circular non-targeted nano-lipobubbles to generate targeted nano-lipobubbles, the size distribution increased from 129 nm to 270 nm when it was compared with non-targeted nano-lipobubbles. This confirms the successfully incorporation of the synthetic peptide ligand on the surface of non-targeted nano-lipobubbles. The overall zeta potential or surface charge of the targeted nano-lipobubbles was −29 mV.

KVLFLS (KVLFLS-NH2) [Synthetic 6 amino acid peptide ligand from human apolipoprotein A-1 targeting the SEC receptor]
diameter (size distribution): 366±41 nm
